Test results from the supplement of paper PMC9170038.

Tested on: K4 kissing-loop RNA reporter
Experiment: apparent KD of K4 kissing-loop reporter; higher = weaker reporter binding
Conditions: Eterna round: R107
Method: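 RNA-MaP round R107: designed RNA switches with theophylline, tryptophan, arginine or FMN aptamers are transcribed on-chip within common flanks. They are titrated with a labelled K4 kissing-loop RNA reporter in RNA-MaP buffer (100 mM Tris pH 7.5, 80 mM KCl, 4 mM MgCl2), without ligand or with the indicated ligand. Median apparent KD per design.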

[1] = input ligand: theophylline 20 uM
[2] = input ligand: tryptophan 2.4 mM
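Note: bound reporter read as fluorescence of individual clusters on recovered sequencing chips by microscopy, with normalized cluster intensities fitted with a binding model.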

Sequence	apparent KD of K4 kissing-loop reporter (input ligand: FMN 200 uM) [nM]	apparent KD of K4 kissing-loop reporter (input ligand: arginine 13.2 mM) [nM]	apparent KD of K4 kissing-loop reporter (input ligand: none) [nM]	apparent KD of K4 kissing-loop reporter [1] [nM]	apparent KD of K4 kissing-loop reporter [2] [nM]
GGAUAGGACAGAGGAUAUGGUAGUGAUGUUACCAAACUGGUUAUCAAUGUUAGAAAAUUGACAAAACCAGAAGGCUGUCCUAUCG [KL-XFMN-B15]	129	65.6	67.8	59.2	66.6
CCAGAAUGAUGAGGAUGAUAAAUUACUGAAGGAGCGCAUAUAGUUGCAGGUAGGUCGCGGUGAAUAAGUAUAGUGAUGUUAUACC [SSArgA.Ab]	595	327	314	322	341
AAGCAGUCACUCGAAAUCAUCGAAGAUGAACGAGGACCGGUACGGCCGCCACUCGGAGUGAUGUUCCGAAGACUGCAAAAUAAAA [MatMod 1 - Jieux - Exclusion - Tryptophan A]	593	410	475	477	106
UGAUAGGACAGAAGGAGCGGAAGUGAUGUUUCCAAAAGAUAUGAUCGACAAAGUCGAUUUUUCCAGGUAGGUCGCUGUCCUAUCU [KL-XARG-B19]	60.5	84.9	66.8	100	66.6
AGGAUCCGUCGACAAAAGUCGACAUAAGCCAAGGAUAUGACGAAAGUCAGAAGGUGGUCAUAAGACCAGUGAUGUUGGUGGAUCC [FmnA 13 #SwitchBubble #K4Late]	909	279	526	309	457
UGUGAUGUGUAGUGUAAUGUUUUGCGGGAUACCAGAGUCUUUUUAUUCCCUUGGCAGCUUGAGUGAUGUUUGAUGCUGUUCUUGU [llmdmullin]	519	351	479	439	326
CGACUAGUCUUGCAACCCUAGUCGAUAUGCUAGGAUAUCAGGAAACUGAGAAGGAGUUUACUUGCAGUGAUGUUGCAAGAAUAAU [KL-SSFMN-A10]	135	153	133	172	129
GUGCGGCUAGUGAUGUUGGUUGCGUGGGAAGGAGCGCAGAAACAUGCAGGUAGGUCGCCCACACCUCUGAAAGGAGGCUAAUUCA [Bisobi]	277	128	163	213	134
UGGAUAUAGUGAUGUUAUAUAGAGAGUGAUACCAGUUUAGAGAAGAACCCUUGGCAGCAUAAAGAAGUAUCAUUAGAGAAGAAUG [ExTheophyl.Ao]	229	216	282	224	176
GGACACUAGGAAACUAGUGUCUCAACUGAAGGAGCGUGAAUAGUCACAGGUAGGUCGCAGUUUGUUAGUGAUGUUGACAUGAGUU [#16 K4 Arginine A Same State]	302	394	514	439	277
AAAUAGAUCAGUCACCCAGUGAUGUUGGAAGGAGCGUGCGAAAGCACAGGUAGGUCGCCAGAAUAAAAGUGGCUGAUCAAAAUAA	512	358	519	513	366
GGCACUACAGCGGCCGCCACUGUUUAGUCCAUCGCUUGCGAGUGAUGUUCGUAGGUACUGCAGCUCAGGACCGGGCUGUCCUUAC [theeternabot_sameState_KL_Trp_B_34]	475	393	471	310	388
AAUAUCUAGUAUAUUUUUAAUAAAACAGAUACCAGUGAUAAUAGACACCCUUGGCAGCUGGUCGAGUGAUGUUCGUUUAUAUUAA [JR_SSTheophyA_Sub006]	85.5	83.6	104	176	57.3
CCUUUAGGCUCGGCCGCCACUCCAGUGAUGUUGGAGGUGCGUACAGAGCUAGAAAGCGUUAUCAGGAGGACCGGGAGUUUUAACG [Leorte]	98.3	107	103	101	110
AGCCAGCGUACAUCACUCUGGCUGCUGGAUACCAGCUCGGAAACGAGCCCUUGGCAGCCAGAACUUGCAGUGAUGUUGCAAGUAA [Design12]	460	276	402	458	345
GCUAUGGUAGGAAGGAGCGCUUAUUUAUUUUUAAGAGUGAUGUUCGUUAGUAGAUAUUUAAAGCAGGUAGGUCGCCUACUAUAGC [Arginine B K4 14]	85.8	124	84	120	52
GGCGCCAGGAAAGGAUAUCUAAGUCUAUUAUCAAGAAUUGCCUCAAGAUCGGAGUGAUGUUCCCAGAGAGAAGGUUCUAUCCGCU [theeternabot_exclusion_KL_FMN_B_38]	170	193	186	206	164
UGCAGUGAUGUUGCUAUUUUUCUUGAUUAACGAGGACCGGUACGGCCGCCACUCGAUUUCUCUCUAAUCCAGUAUGUUGUUUGAU [whbob_EX_Tryp_A_t4]	97.9	139	112	142	81.1
GGAUAGGACAGAGGAUAUGGUAGUGAUGUUACCAAACUGGUUACUCUUGUCAGAAAACUGGCAUCUCCAGAAGGCUGUCCUAUCG [KL-XFMN-B10]	594	109	123	135	127
GCACUACAAUAAGGAUAUCAUAAAAUGGAGAGCGAGUGAUGUUCGCAGAGACACCUAUUUUUCCUAUGAGAAGGUAUUAACGCCG [theeternabot_sameState_KL_FMN_B_40]	97.8	99	120	161	93.2
GUGGCACGAAAGUGCCACGCAUCCUCUGGCUAGGAUAUCUGGAAACAGAGAAGGAGCUCAUGAGUGAUGUUCAUCUAGAGGAUGC	827	537	1010	978	947
AAGACCUGCAUCGAUACCAGCCCAGUGAUGUUGGGCUGCUCUCCAUGGGUGCCAGACACGGGCCCUUGGCAGCGAGGUAGGGCCC [Zazadilabi]	136	106	117	93.1	103

Sequence	apparent KD of K4 kissing-loop reporter (input ligand: FMN 200 uM) [nM]	apparent KD of K4 kissing-loop reporter (input ligand: arginine 13.2 mM) [nM]	apparent KD of K4 kissing-loop reporter (input ligand: none) [nM]	apparent KD of K4 kissing-loop reporter [1] [nM]	apparent KD of K4 kissing-loop reporter [2] [nM]
UUGCGUCUCUGAGGAUAUCAGAACAGAGUGAUGUUCUGUCAACGCCCAGUGAUGUUGGAUGCGAUCUGAGAAGGCAGUGGGCGCG [Same State FMN B GF 10]	202	188	219	177	184
AAGCAGUUCUCAAAGAGUACUGCAGGACAGCAGGAUAUAGUGAUGUUGAGAAGGGCUGUCCCGUCUGCAUGAAACAUGCAGACGA [Simply curious]	1350	688	808	1290	688
CACCCUAGUUCAGAUACCAGACUAGAGACAGUGAUGUUGUCACAUCCUAAAUUGGGUGUAGUCCCUUGGCAGCUGAGUAAUCUGC [Theo B/Ex/SS double]	600	635	724	596	540
GUGCAAAGCACCGGCACGAGCAGCUUAAAGGAGGAUAUGACGAAAGUCAGAAGGUUUAGUGAUGUUAGGCCUUGCUUGAGUCGAA [#01 K4 FMN A Exclusion]	326	265	282	413	270
GCCGUAGAUUGAAGGAGCGCCGCGCAUGUCCCGCUUAGUGUAGUGAUGUUACAGUUUCAGCGGCAGGUAGGUCGCAAUCUACGGC	83.4	83.3	81.3	77.2	69.5
CGCCAGUGAUGUUGGUGCAGCUACCGGGAAGGAGCGCCCAUAAGGGCAGGUAGGUCGCCCGGGCAGUGAUGUUGCCUCAUGCCGC [Exclusion Arginine A GF 22]	243	236	273	234	238
AAGCAGUCACUCGAAGCCAUCGAAGAUGGGCGAGGACCGGUACGGCCGCCACUCGGAGUGAUGUUCCGAGGACUGCAAAAUAAAA [MatMod 4 - Jieux - Exclusion - Tryptophan A]	507	365	350	299	311
UGACUGGACUGAAGGAGCGCGCGAGACAAAGUCUCGAACUGCUAGUGAUGUUAGCGAAUAACGCAGGUAGGUCGCAGUCUAGUCU [ArgBS 14 #SwitchBubble #StaticStem]	177	146	175	155	156
AAAUUUAUAUUAGAUACCAGUUUAAUGGAUGUAAAUUAUGACAUGAGUGAUGUUCAUGUAAGCCCUUGGCAGCUGGUAUGGGUUU [KL-XTheo-B21]	127	110	121	116	115
ACUGAGCAUGCGGCCGCCACUUCAGAACGUCGCCCAAAGGGCGACGCCUCCACAGUGAUGUUGUGGAGGACCGGGCAUGUUCAGA [Omei KL Tryp B Exc A v2]	152	113	136	111	144
UCCUCGAAUCGACCUCGAAAGAGGAUGGAUACCAGAGAAGAAAUUCUCCCUUGGCAGCCAGUGAUGUUGGAACGAGGUAAAUAAA [#SwitchBubble 20 #K4Late]	508	412	517	327	424
GCAAGGCUACAAGGAUAUGCGCGAACCUACCGCCAAGCGGCUACCGGUGAGUCAGUGAUGUUGGCUGCAGAAGGUGUGAUUGAGC [theeternabot_sameState_KL_FMN_B_45]	383	301	365	380	334
AAGUAGCUCUCGGCCGCCACUCCUCAGUGAUGUUGAGAUUUUUUCUGCCAAUUGGCGUUUUUUUAGAGGACCGGGAGAGCUACAA [AK1 SS Tryptophan B]	332	365	339	291	124
AUUUUUUUGUCAGGAUAUUAGUGUGGGUUUGGUUUGUUAGUGAUGUUGAUAUUUGUUUUAUGUAUUUAAGAAGGGAUUUAGCGGU [zzdxemullin]	556	330	431	443	285
GCAACAUUGGCAGGAUAUCCUUCUCAGUGAUGUUGAGGGUUCAGCUAACGAAAGUUAGUUGUACCAGGAGAAGGGCUAAUGUUGC [Omei KL FMN B SS A v7]	416	815	1420	906	1440
GAGGUACAGGCGGCCGCCACUAGUGAUGUUAGUGAUGUUAGAUAAAGUAUAUAUCGGCGUGUAGAUAGGACCGGGCCUGAUGGAG [ssrykmullin]	49	33.6	60	42	53.9
AUUUGUUUAUGUGAUACCAGACUAAGCAGUGAUGUUGCUUUUAUUUUUGAAUUUUAAAUAGUCCCUUGGCAGCACUAUGUCUGUA [#05 K4 Theophylline B Same State]	96.4	147	135	161	94.2
UCUGGAGUAUAUGAUACCAGCAGUGAGAGACAGGAAGUAUAGUGAUGUUAUAUGAGAGAAUGCCCUUGGCAGCGUGUGCGGUGGC [SSTheophylB.Q]	118	77.8	61.6	81.4	58.3
UAAUGUGGCACAGGAUAUACUGAUUGGAGUGAUGUUCCAAACAUGAACAAGAGACUUUUACAAGAAGUAGAAGGGUGUUAGAUAU [Exclusion FMN B GF 19]	269	265	223	295	223
UAAAAUAAAUAAUAGAGAUAAUUACUCGAAGGAGCGACGAAUUCGUCAGGUAGGUCGCGAGUGAUGUUCGCAAAUAUUAUCUCAU [AK3 Exc Arginine A]	212	328	295	345	261
UGUCAUUGGUCUGAUACCAGAAGAUAAUCUGGAGUGAUGUUCCAAGUACGACAAAGUCGCUUCCCUUGGCAGCAGACCGAUGACU [TheoBS 19 #SwitchBubble 13 #StaticStem]	1040	759	1110	619	886
